Laboratory results: patent publication CN111494645A (UNIV CHINA PHARMA, dated 2020)
Residue numbers refer to the chain shown, from its start. In names and notes the source's numbering stands. One block for each binder: values may come before it.

Legend:
[1] = target: T1, 人DLL4抗原 (human, UniProt Q9NR61 27-524, limits assumed); test: ELISA, DLL4 antigen coated at 1 μg/mL, antibody titrated 0-1000 nM, HRP secondary, OD450-OD630
T1 construct: also called Delta like 4

[2] = target: T1, 人DLL4抗原; test: ELISA, DLL4 antigen coated at 1 μg/mL, conjugate titrated 0-1000 nM, HRP secondary, OD450-OD630

T1 sequence (Q9NR61 27-524 limits assumed): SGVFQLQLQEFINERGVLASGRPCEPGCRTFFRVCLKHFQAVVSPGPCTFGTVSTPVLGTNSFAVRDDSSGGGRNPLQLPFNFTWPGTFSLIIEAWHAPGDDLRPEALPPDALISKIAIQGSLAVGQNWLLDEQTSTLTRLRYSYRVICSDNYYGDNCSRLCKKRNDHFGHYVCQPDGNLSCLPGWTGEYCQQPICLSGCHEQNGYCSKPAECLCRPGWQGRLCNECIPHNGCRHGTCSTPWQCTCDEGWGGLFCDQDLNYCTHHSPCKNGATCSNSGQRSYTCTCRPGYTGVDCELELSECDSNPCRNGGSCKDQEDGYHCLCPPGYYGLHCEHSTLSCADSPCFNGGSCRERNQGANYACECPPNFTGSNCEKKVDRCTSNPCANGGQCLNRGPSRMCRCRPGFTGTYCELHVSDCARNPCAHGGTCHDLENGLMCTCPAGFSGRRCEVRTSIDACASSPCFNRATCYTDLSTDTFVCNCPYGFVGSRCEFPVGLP

EC50 [1]: 49.2 nM
B1: 抗人DLL4人源化抗体H3L2 (antibody)
heavy: not shown
light: EIVITQSPDFQSVTPKEKVTITCSVSSSISSSYLHWYQQKPDQSPKPWIYGTSNLASGVPSRFSGSGSGTDYTLTINSLEAEDAATYYCQQWSSSPLTFGQGTKLEIKVDTVAAPSVFIFPPSDEQLKSGTASVVCLLNNFYPREAKVQWKVDNALQSGNSQESVTEQDSKDSTYSLSSTLTLSKADYEKHKVYACEVTHQGLSSPVTKSFNRGEC
notes: IgG1 humanized antibody; also called 裸抗

EC50 [2]: 42.6 nM
B2: 抗人DLL4人源化抗体THL4与美登素生物碱DM1的偶联物HLmD4 (THL4-mpeo-DM1) (antibody, human IgG1, kappa, DAR 3.96)
heavy: not shown
light: B1 light with V207C
modifications: DM1 coupled through the BMPEO linker (mpeo-DM1) to the engineered Cys at light chain position 207 (V207C); DM1 coupled through the BMPEO linker (mpeo-DM1) to the engineered Cys at heavy chain position 121 (K121C)
notes: Antibody-drug conjugate of the IgG1 antibody THL4 (H3L2 with light chain V207C and heavy chain K121C) with DM1; average DAR 3.96 by HPLC; also called 抗体药物偶联物HLmD4
